Source: the DeepSol protein solubility set

Experiment: soluble on expression in E. coli; label from the status in PepcDB or PDB records

Sequence	soluble on expression in E. coli
MAHHHHHHMADLRDELDATALFGSGYVCIVGPPSSGKTTLILEYLVARERQAVHSGDGDAAAFCMEYVSARSAPHELLRHLTYRLLPHARRRRLSYECTPLEFSASLVEWVEAHPGQSELHLVVDDADALEYSAEEMNLWLSHYLRAPAEQRCTVILWLISELPLRLSNCFRYHFIARPEANSIVQWLHHQFEEERRLLAGLESEEDDSEHTVNGAPMTTLSADEVNRVVLDAFTYYATHQPMCSSVVSRDVRLLVQRVYQILPPLLLEVAATTSAVPGESGEAAVSASTTADAVKKLNARHFAAAWSQYRSDGGGGTSSAMAVSGAAASAQNTLVMALKRLGYSAVLLAFAAFYGGAVPKRQQHQVFGRIGSGERQPPLHEAKGQSHKAAVLTASAHVVTLRRLGFLYDAMLRMCTPHIDPLEFTTADVALQYVQGFVAWGLLTPVVSQRHRSYHCWIPVSTAPAVGA	not soluble
MRRRVGLGAIQQQKLAAEKYKDKGTDLQENQLEQMTKQMEVFRVKLEEFAMKHKEDIRKNSQFRKQFQEMCAAIGVDPLATGKGFWSVLGMGDFYYELGVQVVEVCLAANHKTGGLMELDDLRRRLIAARGQSSVHQEITKEDILMAAKKLSIFGNGFVVHKLGKGKYIVQSIPGELSMEETNILNAASNTEQGCVTQSQLIKDLGWTDYRAQQSLDKVLGEGLCWIDKQAGDEPAYWFPSLFPGRNAQTTAATAAAAAALEHHHHHH	not soluble
MGSHHHHHHDITSLYKKAGSAAAVLEENLYFQGSFTMLHEIPKSEILKELKRIGAKRVLIQSPEGLRREAEELAGFLEENNIEVFLHGEINYGACDPADREAKLVGCDALIHLGHSYMKLPLEVPTIFVPAFARVSVVEALKENIGEIKKLGRKIIVTTTAQHIHQLKEAKEFLESEGFEVSIGRGDSRISWPGQVLGCNYSVAKVRGEGILFIGSGIFHPLGLAVATRKKVLAIDPYTKAFSWIDPERFIRKRWAQIAKAMDAKKFGVIVSIKKGQLRLAEAKRIVKLLKKHGREARLIVMNDVNYHKLEGFPFEAYVVVACPRVPLDDYGAWRKPVLTPKEVEILLGLREEYEFDEILGGPRESDEPFGISIHSTR	soluble
MKKQKKARLIYNPTSGQEIMKKNVAEVLDILEGFGYETSAFQTTPTKNSARDEATRAAQAGFDLIVAAGGDGTINEVVNGIAPLKRRPKMAIIPTGTTNDFARALKIPRGNPIEATKLIGKNQIVKMDIGQAQEDNYFINIAAAGSLTELTYSVPSQLKTTFGYLAYLAKGVELLPRVRKVPVKITHDKGEFIGDASMIFVAITNSVGGFEQIAPDAKLDDGKFTLILVKTANLIEIMHLIRLVLAGGKHINDKRVEYIKTSYLTIEPLSDERMMINLDGEYGGDAPITLANLKNHIRFFANTDEISDDALVLDKDELAIEAIAQKFANEVDDLEGLGD	soluble
MGSDKIHHHHHHLTNLLVIGATGNIGQPLIRDLQDDPDVHLFAGVHNSEHAKQALNGLKVQVRRFDFLDPATFEQALADIDKVFFVRPPQLAKPKEDMYPFLDALVARHVKQVVFVSLLGVAHNPMTPHHQIEKRIVELGLPYTFIRPSFFMQNLNTTHQADIVGHRDLFVPAGHARTSFIDTRDIGATAAVILRDPAYIGQKLDITGAQALTYADAAQIMTMELGVPITYSKPSLWRFRKVMLQRGLPKNYVNVMVMLYLITQLGNAKTVTTTLPNVLGRPAISFEQYVHDYRAEFLPKPLS	not soluble
GPRRTRTTFTSSQIAELEQHFLQGRYLTAPRLADLSAKLALGTAQVKIWFKNRRRRHKIQSDQHKDQS	soluble
MPKIQNIVTVSSQEYRDAMSHFAGAVHIVTTNGIKGKRGVTISACCSLSDDPPTLLVCLMRHNLKNHLFIENGNFCVNSLAGKHRSLADIFSRRYNYTETECFDRAQWGTLQTGAPSLSDALASFDCRLICWHEHATHYILIGEVIAINRNQEKDALIYLNRGYHTLPL	not soluble
MGSDKIHHHHHHMFGYVKINKMDLTFREYDYYKAYYCGLCKYLKRNHGEISRFSLNYDITFLIVLLTAVYNPESISTEEVCIVNPFKKKKVITNDITEYAASMNILLTYYKLEDNLMDDKRIKDKLAYYIYKNKLKLAYEKYPEKAEYIKQQLNELNKLEKDKNINIDEVSSIFGNIMGEVFVYKKDENERNLRMIGFNIGKYIYLLDAYEDLDEDFKKGRYNPFIEYIDKNDELKEKVKKIIVTSLGFLARGIDNLNLNKNVGIIENIIYSGVYLRYINILESRGGKNVQ	not soluble
DDEFLRGKRVLVVDDNFISRKVATGKLKKMGVSEVEQCDSGKEALRLVTEGLTQREEQGSVDKLPFDYIFMDCQMPEMDGYEATREIRKVEKSYGVRTPIIAVSGHDPGSEEARETIQAGMDAFLDKSLNQLANVIREIESKR	soluble
MSLDIQPFSMPLSSPLSTADGTIESRRGFLVRTEIDGVAGVGEAAPLPGWTESYDACQAALCGVEKPKQALEDNVFDDTPAARHAVSLAVADAAARRAGVPLYRRLGAGERVESVPVNATVGDGSPSATAEAVADAAAAGFPAAKVKVGNRSLDADIERIEAVRQRYPDIELRVDANGAWEFETAREAVESMSALGVAVLEQPLPAEALDNHRRLRGHGIDIALDEGLLRHGVDAAIAAEAADCLVCKPMALGGVDIARSAAERARADGWDVIVTTTIDGVVARAAAVHLAASVPDVRPCGLATGGRLASDVGPDAAPVSDGTAAVPQGKGNIPPLEGHHHHHH	soluble
MTDQERIELQKNNPLHGLKLETLLQELVDFYGWDILDTAMRFNCFHTKPSIASSVKYLNKTEWAREKLENFYLYRFKRMPRASSEEFTLPPRARTFPHGLHPKEPMALTVDSILKSQAKAASAHKERTSRSRYNQR	not soluble
MSSIRYRRPPIIERRYERTPSYSTIPRDIHVSFYHNNYHRSKILYLNKFNAMEKLIEAAHELYPSNGVYRLFSDSTIGAQNELNDSVQVMECVQNPDHILPHLHIRLEDYRPRSISRNYHEVNVPIIRTPSQHSIHQSVRFNDNKRHHHHHHHDSIRNFVHHDTPCRNCFRIIVGSRYHCLQCPDYDICGDCEKDLVHYEHALLRIVTPRVTSIPDYVTVNAPSYIFPEHRYDIKREHYHWF	not soluble
MTQQHPHLLEPELGEFLTALKNTPSRLTARTAAWLCIWTASRPGMVRLAEWKEFDLDKATWTTPAAKMKMRRDFVCPLPHQAIAALKELHCLTGRSRWLFPGVGAKNPTISENTINKVFATIGYKGRLVGHGTRHTASTLLREHGWPKEHVEAQLAHKEEGLEHHHHHH	not soluble
GMKLQTTIQHEPKDGSGFDRGLREFFEYRDTGVNEATGGMFGAHVIRAIPGKEAKPTWHTHTVGFQLFYVLRGWVEFEYEDIGAVMLEAGGSAFQPPGVRHRELRHSDDLEVLEIVSPAGFATSVVDLEEARKP	soluble
GKQDRQMIVVDPRKTDTAKLADVHLQVEPHKDYELVSALRAAAKGFNIEAEQVAGVPTETIYEAVDICKNAQFGSLFFAMGVTMSRGKHRIIDNAIQFVIDMNAYTKFVLTPMRGHYNVNGFNQVSTWVTGYPYGVDFSRGYPRYNPGETASNDVLQRGDTDMMINVASDAGAHFPQKAVQHMAKIPLVCIDPHETPSSVISNIVLPPAITGLEVSGTAYRMDGVPIELRKVIKAPEGMLSDAEIMK	not soluble
MQTVIGTTNGRPGTTYYQRGRMHRHQPGNRQQKEKKAAAGRNRNDFLTGRILPVTPDYCMEIRAGEKINLTTRENFDFLYRSALRYSALVGLRLPFRPTGKSPRMNIVKLYRAMDTILPEHVNLEEENGRLYFCLYRFHEWPEYKLFWIPLEFTERLPEKLGKIALEFIRQLARHHGIPKSTDTSYHEMAHDYLEDYRLYDEEATAGEIRRKAALARLYEKGKAHRILKRMDNPKGFLADLEGEIRKYHTKKNNERALLELLTEGTAYISYGSPSIMQYSYDWAYEKAADFRPVGLDTQIMVTWSVKDAMNDEMESYFNSDYQESYVITPVTTFHLTPDTEKPFSMDDFPERFSHWLERFTKLITNNF	not soluble
MLKSKKRLLNPDYLFVTQDESSFYLDSNRSKCWAIKGSKPIKFISGSKTKINIGGFYTENRDFYWYDLGIKKNTDSFLKSLIKLKKDIGRKIFLLLDRATWHKSKKAREFFQNNKYWLQILLFPPATPDRNPTEYCWKTTREELTSIKSFKNIKVLKEELDEFWEKHVFTHKMSHYLKWLEHHHHHH	not soluble
ANNRAEVDTLSPAQAAELKPMPQSWRGVLPCADCEGIETSLFLEKDGTWVMNERYLGAREEPSSFASYGTWARTADKLVLTDSKGEKSYYRAKGDALEMLDREGNPIESQFNYTLEAAQSSLPMTPMTLRGMYFYMADAATFTDCATGKRFMVANNAELERSYLAARGHSEKPVLLSVEGHFTLEGNPDTGAPTKVLAPDTAGKFYPNQDCSSLGQMASMTGGQQMGHHHHHH	soluble
MHVMIFGAGYSGKAIANALKTKAASVCGTTRSADKFANLAAAGMTPLLFDGVHLDDDLIAAMRNVTHLVQSIAPGKDGDPLFALLGGDLKKLLPNLKWLAYLSTVGVYGDHHGAWVNETTPCRPVSARSVERVAAEAAWTEAAQSADVPLSILRLSGIYGPGRNTFMNFEKGTARRLVKKDQVFNRIRVEDIGAAIAFLALKNERGIFNVTDDEPCPPQDVVSFAADLMGVVPPAEQDFGTADLTPMARSFYGENKRVSNAKIRELGFDFRFPEYRQSLKQLWESSLWRG	not soluble
MCTFCSIINRELEGYFVYEDEKFAAILDKYPVSLGHTLVIPKKHFENYLEADEDTLAELAKVVKLVSLGIKDAVKADGLRLLTNIGRSAGQVIFHLHVHIIPTWEGDYPDIFKSFKPRKEQEKEYYELLQKIIRESIENLKRKIGDYKWG	soluble
MNNKTEQGNDAVSGQPSIKGQPVLGKDDAPVTVVEFGDYKCPSCKVFNSDIFPKIQKDFIDKGDVKFSFVNVMFHGKGSRLAALASEEVWKEDPDSFWDFHEKLFEKQPDTEQEWVTPGLLGDLAKSTTKIKPETLKENLDKETFASQVEKDSDLNQKMNIQATPTIYVNDKVIKNFADYDEIKETIEKELKGKLEHHHHHH	soluble
MGSDKIHHHHHHMQGIQQSLPLAVVRGEPVRELPADLFIPPEALEVFLEAFEGPLDLLLYLIRKQKLDVIELPLTLIAAQYLEYIRLLTDARIELAADYLVMAATLAEIKSRLLLPKMAVEDDEEEDPRVRLIKQLKAYESIREAAFKLDELPRLERDVHQARAQAAPGLKPEVIPPDVSLKELALAFAEVLKRASAFEHHQVKKEVLSTRERMSEILAKLDHEHFTPFTALFSPEEGRGGVVVSFLALMELVKETLVELYQAEPLSGIYVKAT	not soluble
GKVFERCELARTLKRLGMDGYRGISLANWMCLAKWESGYNTRATNYNAGDRSTDYGIFQINSRYWCNDGKTPGAVNACHLSCSALLQDNIADAVACAKRVVRDPQGIRAWVAWRNRCQNRDVRQYVQGCGV	soluble
MGSDKIHHHHHHMEITKRIEELREEMVESLKKFISINSVNPAFGGPGEKEKADWLEGLLRDFGFEVDRCDVRDDRGIWRSNIVAKIPGKNREKTLWIVTHIDTVPPGDLSLWETDPFVPVVKDGKVYGRGAEDNGGSMIASIYAGKALIDLGITPEYNFGLALVADEEAGSEYGIQYLIEKGLFSPEDMFLVPDAGNEKGDFIEIAEKSILWFKVMVNGKQGHASRPQTTENALRKGAHLITEIDEALHRKYSDRDELFDEPLSTFEPTRAEKTVDNVNTVPGRFVFYFDCRVLPRYNLDEVLSIVKSILDGRGAELEVVVKQPAPEPTPPDSELVVKLSNVLRSLRGLEAKVGGIGGGTCAAFFRKKGWPAVVWSTIDETAHQPNEYRRISHMVEDAKVFALLGTER	not soluble
